Entries after “also recorded” stand apart in the source; their conditions may differ. Where no end group is shown, it is not given here. The star is where a group is joined. Biotin = O=C1N[C@H]2[C@H](CS[C@H]2CCCCC(=O)*)N1
Columns and labels:
[1] = tested on: mouse anti equine IL-31 serum; assay: Bio-layer interferometry binding of mouse serum to immobilized equine IL-31 mimotopes
Source text: Mice were immunized with full length equine IL-31 (SEQ ID NO: 165; Equine_IL-31), the corresponding nucleotide sequence for which is (SEQ ID NO: 166; […]) conjugated to CRM-197 like the method described in section 1.6 of this application. Biotin conjugated peptides representing three epitope regions described herein were designed for use with a bio-layer interferometry binding assay (Octet, ForteBio). Description of these peptides are described in FIG. 21A. Each peptide contains an N terminal biotin with a three-amino acid spacer sequence (GSG) annotated with bold underlined text in the figure. The 15H05 mimotope includes two terminal cysteine residues (also highlighted in bold and underlined) to facilitate cyclization by a disulphide bond. […] Control mouse serum was from a mouse vaccinated with an unrelated protein. The response, described here as the amplitude of the signal following 120 seconds of antiserum association, is represented on the y axis of the figure. […] In addition, the ability of these IL-31 mimotopes to be recognized by those immune responses can be assessed through binding. […] Like presentation of mimotopes described herein which elicit immune responses to full length protein, this experiment describes a reciprocal validation of these epitopes where the immune response is validated from the protein against the mimotope.

feline IL-31 [2] = assay: Cat pruritus challenge model, subcutaneous antibody then IL-31 challenge; format: in vivo; conditions: cats, 4 mg/kg subcutaneously day 0; 0.5 μg/kg i.v. IL-31 challenge days 7, 21, 28
Description: The efficacy of the fully felinized anti feline IL-31 mAb ZTS-361 was assessed for its ability to neutralize pruritic behavior in an IL-31 induced in vivo cat model. […] As shown in this graph, the variance of pruritic behavior scored for both T01 and T02 groups prior to IL-31 challenge varied little with the number of pruritic events observed between 0 and 10 within the 30 minute observation period. This study differed from the preliminary feline challenge model described above in section 1.13 in that on day zero cats were dosed with 4 mg/kg ZTS-361 subcutaneously without combination with feline IL-31 to generate a pre-bound complex. This represents a more rigorous assessment of efficacy as antibody ZTS-361 will be in circulation for seven days prior to the first IL-31 challenge requiring the antibody to have sufficient exposure to bind and neutralize circulating IL-31.
For this study, pruritic behavior was assessed on days 7, 21, and 28 for 1 hour following a 0.5 μg/kg intravenous challenge of the IL-31 protein.
Target sequence in this assay (as listed by the source): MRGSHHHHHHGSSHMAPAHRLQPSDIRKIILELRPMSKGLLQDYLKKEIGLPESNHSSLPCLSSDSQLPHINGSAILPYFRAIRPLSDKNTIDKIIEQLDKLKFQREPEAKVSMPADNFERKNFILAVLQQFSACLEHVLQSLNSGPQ

feline IL-31 [3] = assay: Inhibition of feline IL-31 induced pSTAT3 signaling in canine DH-82 cells; format: cell-based; conditions: feline IL-31, pSTAT3, canine DH82 cells (FIG. 3)
Description: (§1) To identify candidates with inhibitory activity, antibodies were assessed for their ability to affect IL-31-mediated STAT3 phosphorylation in either a canine or feline cell-based assay. STAT3 phosphorylation was determined in canine DH-82 (ATCC® CRL-10389™) or feline FCWF4 macrophage-like cells (ATCC CRL-2787). DH82 and FCWF4 cells were primed with canine interferon gamma (R&D Systems, Minneapolis, Minn.) at 10 ng/mL for 24 hours or feline interferon gamma (R&D Systems, Minneapolis, Minn.) at 125 ng/mL for 96 hours, respectively, to increase receptor expression. Both cell types were serum starved for 2 hours prior to IL-31 and mAb treatment. Using two independent methods, all candidate mAbs were evaluated for their ability to inhibit either 1 μg/mL canine or 0.2 μg/mL feline IL-31 induced STAT3 phosphorylation. […] To ensure complex formation, a one hour co-incubation of mAb and IL-31 cytokine prior to cell stimulation was completed. IL-31 cell stimulation was carried out for five minutes. STAT3 phosphorylation was measured using AlphaLISA SureFire ULTRA™ technology (Perkin Elmer, Waltham, Mass.). In the case where antibody concentration and purity are unknown, hybridoma supernatants were qualitatively measured for their ability to inhibit STAT3 phosphorylation following a 1 hour co-incubation with […] IL-31. The potency of individual monoclonal antibodies defined by their ability to inhibit IL-31 mediated STAT3 phosphorylation in these assays was considered the key selection criteria for further advancement of select antibodies. The term potency refers to the IC50 value calculated from these assays and is the concentration of the antibody where signaling induced by IL-31 is reduced to one half its maximal value.
Target sequence in this assay (as listed by the source): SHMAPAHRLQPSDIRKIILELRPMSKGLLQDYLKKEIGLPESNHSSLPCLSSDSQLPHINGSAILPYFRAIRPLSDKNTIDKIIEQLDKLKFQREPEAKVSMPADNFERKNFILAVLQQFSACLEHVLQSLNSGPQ

feline IL-31 [4] = assay: Inhibition of feline IL-31 induced pSTAT3 signaling in feline FCWF4 macrophage-like cells; format: cell-based; conditions: 0.2 μg/mL feline IL-31, pSTAT3, FCWF4 cells (FIG. 3)
Description: as §1

feline IL-31 [5] = assay: Affinity of anti-IL-31 antibodies by surface plasmon resonance (Biacore), feline IL-31 surface; format: binding; conditions: IL-31 conjugated to the surface (FIG. 2)
How it was run: (§2)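 IL-31 amine-coupled (NHS/EDC) at 5 μg/mL directly onto the SPR chip, quenched with ethanolamine; candidate mAbs flowed over as analyte. KD from 1:1 model fits; values below 1×10^−11 M are under the instrument's lower quantitation limit.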
Target sequence in this assay (as listed by the source): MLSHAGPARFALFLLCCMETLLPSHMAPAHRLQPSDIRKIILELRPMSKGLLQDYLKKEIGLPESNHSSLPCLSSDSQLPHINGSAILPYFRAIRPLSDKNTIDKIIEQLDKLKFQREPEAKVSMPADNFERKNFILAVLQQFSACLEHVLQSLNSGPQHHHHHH

canine IL-31 [6] = target: T1, canine IL-31 (Canis lupus familiaris, UniProt A0A8I3S3D1); assay: Inhibition of canine IL-31 induced pSTAT3 signaling in canine DH-82 and feline FCWF4 cells; format: cell-based; conditions: canine IL-31; canine and feline cell types, cell type of the values not specified
canine IL-31, sequence (as listed by the source): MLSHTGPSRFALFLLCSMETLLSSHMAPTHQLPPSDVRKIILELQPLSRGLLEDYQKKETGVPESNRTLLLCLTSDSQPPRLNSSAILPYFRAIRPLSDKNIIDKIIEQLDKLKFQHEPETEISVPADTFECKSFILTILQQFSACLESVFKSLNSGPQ
T1 construct: made in house; host or cells: CHO cells (CHROMOS ACE system)
T1 sequence (A0A8I3S3D1 24-159): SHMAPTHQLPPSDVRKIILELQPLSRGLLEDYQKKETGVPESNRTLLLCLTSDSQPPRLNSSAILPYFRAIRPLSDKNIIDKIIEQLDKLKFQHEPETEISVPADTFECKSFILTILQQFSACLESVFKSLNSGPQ
Description: as §1

wildtype feline IL-31 [7] = assay: Biacore binding, single test concentration of antibody, feline IL-31 surface
Description: (§3) For the indirect ELISA, binding (ELISA OD) to wildtype feline IL-31 and a feline IL-31 15H05 mutant which had mutations in the monoclonal antibody 15H05 epitope region was assessed. To confirm binding, biacore analysis was performed using canine, feline, equine, human, the feline 15H05 mutant, and feline 11E12 mutant IL-31 proteins as surfaces and a single test concentration of antibody. The feline IL-31 11E12 mutant had mutations in the monoclonal antibody 11E12 epitope region.
For the indirect ELISA method, antibody binding to wildtype and feline IL-31 15H05 mutant proteins was assessed. […] In comparison, the 11E12 antibody bound to the wild-type feline IL-31 and its binding was not impacted by the mutations in the 15H05 epitope region as evidenced by the data in FIG. 4. To confirm binding, biacore analysis was performed using canine, feline, equine, human, feline 15H05 mutant, and feline 11E12 mutant IL-31 proteins as surfaces and a single test concentration of antibody. Similar to ELISA observations, all antibodies tested bound to wildtype feline IL-31. In agreement with the data described above in this section, mouse antibodies 11 E12 and 15H05 both bound to canine and feline IL-31 surfaces. […] From this group of nine fully canine antibodies, only ZIL1 and ZIL9 cross-reacted with equine IL-31. […]

wildtype feline IL-31 [8] = assay: Indirect ELISA, binding to wildtype feline IL-31
How it was run: (§4)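 Wildtype or 15H05-epitope-mutant feline IL-31 coated directly onto plates as capture antigen (50 ng/well). Antibodies diluted in PBST, bound antibody detected with HRP-labelled secondary and TMB for 10 min at RT. Reaction stopped with 0.1 N HCl, then OD read at 450 nm.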

canine IL-31 [9] = assay: Affinity of anti-IL-31 antibodies by surface plasmon resonance (Biacore), canine IL-31 surface; format: binding; conditions: IL-31 conjugated to the surface (FIG. 2)
How it was run: as §2

feline IL-31 [10] = assay: Competition binding assessment using Biacore, feline IL-31 surface; conditions: sequential addition of 15H05 and 11E12, Biacore
Description: (§5) To further characterize the IL-31 epitopes bound by mAbs 15H05 and 11 E12, blocking experiments were performed using biacore where the surface containing the IL-31 protein was generated followed by sequential addition of antibodies. FIGS. 7A and 7B show the relative binding of each antibody to IL-31 following capture of 11E12 or 15H05. The columns labeled HBS-EP (assay buffer) indicate the maximum signal obtained from each antibody binding to the IL-31 surface alone without competition. […] The sensograms related to FIG. 7A show the disassociation kinetics of both antibodies are very slow on this newly formed biacore surface therefore no additional occupation of binding sites can occur with addition of the same antibody (data not shown).
Binding of additional antibody in the presence of the same antibody is a result of the increased off rate due to the poorer quality of the surface used. Increased off rates can be seen and compared to the KD values from newly formed feline IL-31 surfaces in FIG. 2.

[11] = tested on: feline 11E12 mutant IL-31; assay: Biacore binding, single test concentration of antibody, feline 11E12 mutant IL-31 surface
feline 11E12 mutant IL-31, sequence (as listed by the source, change not shown): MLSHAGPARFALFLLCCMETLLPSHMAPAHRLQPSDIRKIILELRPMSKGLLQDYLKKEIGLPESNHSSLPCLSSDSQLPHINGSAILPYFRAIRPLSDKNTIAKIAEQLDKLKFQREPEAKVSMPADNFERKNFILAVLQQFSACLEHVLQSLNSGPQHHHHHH
Description: as §3
(§6) For the indirect ELISA method, antibody binding to wildtype and feline IL-31 15H05 mutant proteins was assessed. […] In comparison, the 11E12 antibody bound to the wild-type feline IL-31 and its binding was not impacted by the mutations in the 15H05 epitope region as evidenced by the data in FIG. 4. To confirm binding, biacore analysis was performed using canine, feline, equine, human, feline 15H05 mutant, and feline 11E12 mutant IL-31 proteins as surfaces and a single test concentration of antibody. Similar to ELISA observations, all antibodies tested bound to wildtype feline IL-31. In agreement with the data described above in this section, mouse antibodies 11 E12 and 15H05 both bound to canine and feline IL-31 surfaces. […] From this group of nine fully canine antibodies, only ZIL1 and ZIL9 cross-reacted with equine IL-31. Of note, antibody 15H05 was the only one of all assayed herein that bound to canine, feline, and equine IL-31 indicating some level of epitope conservation across the three species. In contrast, none of the antibodies described herein bound to human IL-31. Additional biacore surfaces were used to verify ELISA observations showing differential binding of antibodies to wildtype feline IL-31 and two proteins with mutations in the 15H05 (15H05 mutant) or 11 E12 (11E12 mutant) epitopes. […] Differing results can be attributed to differences in the two assay methodologies.

canine IL-31 [12] = assay: Biacore binding, single test concentration of antibody, canine IL-31 surface
Description: as §3, §6

canine IL-31 [13] = assay: Competition binding assessment using Biacore, canine IL-31 surface; conditions: sequential addition of 15H05 and 11E12, Biacore
Description: as §5

[14] = tested on: feline IL-31 15H05 mutant; assay: Indirect ELISA, binding to feline IL-31 15H05 mutant; conditions: compared with wildtype
feline IL-31 15H05 mutant, sequence (as listed by the source, change not shown): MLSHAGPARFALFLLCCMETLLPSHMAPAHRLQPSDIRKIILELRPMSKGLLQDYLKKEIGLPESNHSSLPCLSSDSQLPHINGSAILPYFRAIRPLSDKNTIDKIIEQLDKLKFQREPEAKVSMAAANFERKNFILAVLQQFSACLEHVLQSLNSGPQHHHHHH
How it was run: as §4

[15] = tested on: feline 15H05 mutant IL-31; assay: Biacore binding, single test concentration of antibody, feline 15H05 mutant IL-31 surface
Description: as §3, §6

[16] = tested on: feline IL-31 11E12 mutant; assay: Indirect ELISA, binding to feline IL-31 11E12 mutant; conditions: compared with wildtype
Source text: To determine the impact of mAbs 11E12 and 15H05 ability to bind these mutant forms of feline IL-31, an indirect ELISA was run using the mutants directly coated on to an immunoassay plate. […] The minor attenuation of mAb 15H05s binding to the 11E12 mutant is likely due to translational effects of the mutations from movement of the two front helices effecting the 15H05 binding site. The mutations designed to affect mAb 15H05s binding (mutant 15H05) show a complete loss of mAb 1505s ability to bind this IL-31 mutant by ELISA. Unlike the 11E12 mutant, the changes in the random coil recognized by mAb 15H05 (mutant 15H05) had no impact on mAb 11E12 binding further supporting the distinction between the two epitopes (FIG. 6C).

Molecule	binding of mouse anti equine IL-31 serum to mimotope ([1]; biotin peptide on streptavidin pins, 120 seconds association)	binding of control mouse serum to mimotope ([1]; serum of a mouse vaccinated with an unrelated protein)	reduction in pruritus compared to vehicle placebo control (feline IL-31 [2])	potency (IC50) against feline IL-31 in canine DH82 cells (feline IL-31 [3])	potency (IC50) against feline IL-31 in feline FCWF4 cells (feline IL-31 [4])	affinity (KD) to feline IL-31 (feline IL-31 [5])	IC50 against canine IL-31 (canine IL-31 [6])	binding to wildtype feline IL-31 (Biacore) (wildtype feline IL-31 [7])	binding to wildtype feline IL-31 (ELISA) (wildtype feline IL-31 [8])	affinity (KD) to canine IL-31 (canine IL-31 [9])	competition binding on feline IL-31 (feline IL-31 [10])	binding to feline 11E12 mutant IL-31 (Biacore) [11]	binding to canine IL-31 (Biacore) (canine IL-31 [12])	competition binding on canine IL-31 (canine IL-31 [13])	binding to feline IL-31 15H05 mutant (ELISA) [14]	binding to feline 15H05 mutant IL-31 (Biacore) [15]	binding to feline IL-31 11E12 mutant (ELISA) [16]
A helix: biotin GSG equine IL-31 mimotope N-GPIYQLQPKEIQAIIVELQNLSKK-C (Biotin-GSGGPIYQLQPKEIQAIIVELQNLSKK)	recognized as relevant immunogens	some dilution dependent signal															
ZTS-361: felinized anti IL-31 15H05 mAb, FEL_15H05_VH1 with Feline_HC_AlleleA_1, FEL-15H05-VL1_FW2 light chain (antibody, V domains shown, feline constant regions joined; Felinized variable heavy mAb sequence, from Mus musculus and Felis catus; Felinized variable light mAb sequence, from Mus musculus and Felis catus) VH: QVLLVQSGAEVRTPGASVKIFCKASGYSFTSYTIHWLRQAPAQGLEWMGNINPTSGYTENNQRFKDRLTLTADTSTNTAYMELSSLRSADTAMYYCARWGFKYDGEWSFDVWGAGTTVTVSS VL: EIQMTQSPSSLSASPGDRVTITCRASQGISIWLSWYQQKPGNIPKVLINKASNLHIGVPSRFSGSGSGTDFTLTISSLEPEDAATYYCLQSQTYPLTFGGGTKLEIK			significant reduction in pruritus	highly consistent with values derived from the chimeric and mouse form	highly consistent with values derived from the chimeric and mouse form	highly consistent with that of the mouse and chimeric form	proportionally higher										
11E12: mouse-derived anti IL-31 antibody previously described in U.S. Pat. No. 8,790,651; for comparison (antibody, V domains shown) VH: QVQLQQSGAELVKPGASVKLSCKASGYTFKYYDINWVRQRPEQGLEWIGWIFPGDGGTKYNETFKGKATLTTDKSSSTAYMQLSRLTSEDSAVYFCARGGTSVIRDAMDYWGQGTSVTVSS VL: DIVLTQSPASLAVSLGQRATISCRASESVDNYGISFMHWYQQKPGQPPKLLIYRASNLESGIPARFSGSGSRTDFTLTINPVETDDVATYYCQQSNKDPLTFGAGTKLELK				comparable	comparable	high affinity		bound	bound; also recorded: capable of binding	high affinity	no overlap in the epitope recognized	did not bind	bound	capable of binding to canine IL-31 in the presence of one another	not impacted; also recorded: no impact	bound	highly attenuated
